Molecular target: T1, Gly-Asp-Asp-Asp-Asp-Lys-β-naphthylamide
T1 chain: GDDDDK

B1: CBM-enterokinase produced transiently in lettuce and purified on cellulose (protein)
chain: MVATAKYGTPVIDGEIDEIWNTTEEIETKAVAMGSLDKNATAKVRVLWDENYLYVLAIVKDPVLNKDNSNPWEQDSVEIFIDENNHKTGYYEDDDAQFRVNYMNEQTFGTGGSPARFKTAVKLIEGGYIVEAAIKWKTIKPTPNTVIGFNIQVNDANEKGQRVGIISWSDPTNNSWRDPSKFGNLRLIK
Enterokinase activity (rate of β-naphthylamine formation): Enterokinase activity was measured to be 442.7 cps/min/µg compared to blank 0.0001 cps/min/µg
